The target in assay [1] is AGP from plasma of patients with hepatocellular carcinoma (HCC-AGP) (human) (UniProt P02763). As to the kind of experiment: reversed S2-ELISA: S2 coated at 5 µg/mL, plasma 1:50, detection with antibody 058. On the technique in general: In an ELISA, binding on a coated surface is turned into a signal by an enzyme label.
The target of assay [2] is desialylated AGP (dsAGP) (human) (UniProt P02763). In words: reversed S2-ELISA: S2 coated at 5 µg/mL, dsAGP 2 µg/ml, detection with antibody 058.
Assay [3] has as its target AGP from plasma of patients with hepatocellular carcinoma (HCC-AGP) (human) (UniProt P02763). In words: reversed S2-ELISA, HCC-plasma sample against a normal sample (background); 5 µg/ml S2 coating.
The target is the same in assay [4]. In words: standard lectin ELISA: antibody 058 coated, plasma 1:50, biotinylated S2 at 0.25 µg/mL for detection.
For assay [5], the target named is desialylated AGP (dsAGP) (human) (UniProt P02763). As to the kind of experiment: standard lectin ELISA: antibody 058 coated, dsAGP 2 µg/ml, biotinylated S2 at 0.25 µg/mL for detection.

Regarding “S2-peptide (monovalent fucose-binding peptide; recombinant form of Aleuria aurantia lectin comprising only binding site 2) (from UniProt P18891 51-161)”, the results for the signal to noise ratio in assay [1] and in assay [2] were 5.1 and 5.2, respectively. The signal to background ratio was 10 in assay [3], 1.05 in assay [4] and 1.38 in assay [5].

These data come from patent US20200319189A1.
